Sequences and labels used below:
T1: OutD N0-N1-N2 domains (residues 1 to 258 of signal peptide-less OutD), purified (Dickeya dadantii, UniProt Q01565 28-285)
T1 construct: secretin OutD (GspD) of Dickeya dadantii, N0, N1 and N2 domains, residues A1 to V258; numbers count on: the mature protein
T1 sequence: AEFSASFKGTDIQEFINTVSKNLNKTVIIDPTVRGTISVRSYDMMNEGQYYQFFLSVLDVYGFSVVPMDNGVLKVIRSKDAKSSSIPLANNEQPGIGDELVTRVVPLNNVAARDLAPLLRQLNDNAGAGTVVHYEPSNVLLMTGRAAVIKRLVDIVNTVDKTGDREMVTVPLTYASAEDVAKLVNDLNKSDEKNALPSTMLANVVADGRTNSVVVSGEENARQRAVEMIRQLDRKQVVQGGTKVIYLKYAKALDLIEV

B1: OutB HR domain (residues P112 to K220), purified (domain or fragment)
chain: PAKLVTGWQTAKPGELPYIAFSAHVYTSAPDKRSVTLNGERYREGDSPYQGLVIEQIEQDMVIFSFNGEPFILDSLQDWPGGKPGDDAAQGNEQEPTSKPEQTVRTTKK
notes: OutB (GspB) of Dickeya dadantii, conserved periplasmic domain, residues 112 to 220; uniformly 15N-labelled where it was the observed protein; the NMR methods speak of residues 112 to 193, the results and legends of 112 to 220; also called OutB^112–220; 15N-labeled OutB HR domain; source: E. coli BL21(DE3), purified (glutathione Sepharose, on-column PreScission cleavage, Superdex S200); not shown: …
B2: OutD N0 domain (residues 1 to 85 of signal peptide-less OutD), purified (domain or fragment)
chain: AEFSASFKGTDIQEFINTVSKNLNKTVIIDPTVRGTISVRSYDMMNEGQYYQFFLSVLDVYGFSVVPMDNGVLKVIRSKDAKSSS
notes: secretin OutD (GspD) of Dickeya dadantii, N0 domain, residues A1 to S85; numbers count on: the mature protein; 15N-labelled in the reciprocal experiment

Test [1] has as its target OutD N0 domain (residues 1 to 85 of signal peptide-less OutD), purified (Dickeya dadantii) (UniProt Q01565). Briefly: NMR titration; competition: 15N OutB HR 40 μM, unlabelled OutD N0 60 μM, unlabelled OutC HR 120, 240 and 360 μM; HSQC chemical shifts.
Test [2] has as its target T1, OutD N0-N1-N2 domains (residues 1 to …). Briefly: NMR titration; 1H-15N HSQC of a 15N-labelled domain alone or with the unlabelled partner; each protein 200 μM; 15°C, 20 mM Tris-HCl pH 7.0, 10% D2O. The conditions noted are these: both partners purified.
Test [3] concerns the target B1. Briefly: NMR titration; competition: 15N OutB HR 40 μM, unlabelled OutD N0 60 μM, unlabelled OutC HR 120, 240 and 360 μM; HSQC chemical shifts. The conditions noted are these: both partners purified.

Broadly, the Kd is a measure of binding affinity in units of concentration.

Take “OutC HR domain (residues A78 to S158) (domain or fragment)”: the Kd in test [1] was 1000 µM.

Turning to B1, the binding result in test [2] was “binds”.

On to B2, for which, in test [3], the Kd is around 10 µM.
